Values of other authors as cited in paper PMC3601411.

Target: Fibrinogen gamma chain C-terminal region (Homo sapiens) (UniProt P02679)
Assay: isothermal calorimetry

Clumping factor A (ClfA) 229-545 (from UniProt Q2G015)
Kd: 657 nM
